Reference: patent US20220195383A1, “METHOD FOR PRODUCING PLURIPOTENT STEM CELLS” (KANEKA CORPORATION, priority 2019, published 2022)

Legend:
[1] = system: human iPS cell line RPChiPS771-2; assay: Adhesion culture with addition of WNT3A protein into medium, quantitative real-time PCR; format: cell-based
Protocol: (§1) These cells were lysed using TRIzol™ Reagent (Thermo Fisher Scientific K.K.). Total RNA was isolated and purified from a cell solution obtained by lysing with TRIzol™ Reagent using a PureLink (registered trademark) RNA Mini kit (Thermo Fisher Scientific K.K.). A concentration of the purified RNA was measured using BioSpec-nano (Shimadzu Corporation), and 40 ng was separated. 2 μL of ReverTra Ace (registered trademark) qPCR RT Master Mix (TOYOBO CO., LTD.) and RNase Free dH2O were added to the separated RNA to prepare 10 μL. cDNA synthesis was performed using SimpliAmp Thermal Cycler (Thermo Fisher Scientific K.K.). […] A synthesized cDNA solution was diluted 100-fold with 10 mM Tris-HCl pH 8.0 (NACALAI TESQUE, INC.) and added to a 384-well PCR plate (Thermo Fisher Scientific K.K.) at 5 μL/well. KOD SYBR® qPCR Mix (TOYOBO CO., LTD.), a Forward primer prepared to 50 μM, a Reverse primer prepared to 50 μM, and DEPC-treated water (NACALAI TESQUE, INC.) were mixed at a ratio of 100:1:1:48. This mixed solution was added to the above-mentioned 384-well PCR plate at 15 μL/well and mixed. For the primers, bACT, OCT4, SOX2, Nanog, Brachyury, and SOX17 were used. The 384-well PCR plate was subjected to centrifugal separation to remove air bubbles in the wells, and quantitative real-time PCR analysis was performed using QuantStudio 7 Flex Real-Time PCR System (Thermo Fisher Scientific K.K.).
(§2) The human iPS cell lines 201B7 and RPChiPS771-2 maintenance-cultured in the procedure of Step 1 of Reference Example 3 were treated with Accutase for 3 to 5 minutes to release the cells from the dish. The cells were dispersed into single cells by pipetting. These cells were suspended in a StemFit (registered trademark) AK02N medium containing Y-27632 at a final concentration of 10 μM. A part of the cells was stained with trypan blue to measure the number of living cells. A cell suspension was prepared so that it contained 4.6×10^4 cells per mL using the StemFit (registered trademark) AK02N medium containing Y-27632 a final concentration of 10 μM. 2 mL of the cell suspension per well was seeded in a 6-well plate for cell culture (Sumitomo Bakelite Co., Ltd.) coated with 0.5 μg of Vitronectin per 1 cm^2. WNT3A protein (R&D Systems, Inc.) was added to each of the wells so that final concentrations were 10 pg/mL, 100 pg/mL, 1 ng/mL, 10 ng/mL, and 100 ng/mL, and adhesion culture was performed at 37° C. in a 5% CO2 environment. The day when the cells were seeded was defined as day 0 of the culture. The adhesion culture was performed until day 5 of the culture. Medium exchange was performed every day. […] Phase-contrast images of the cells were acquired using a phase-contrast microscope on day 5 of the culture. FIG. 8 and FIG. 9 show the acquired phase-contrast images. Furthermore, on day 5 of the culture, the culture supernatant was recovered from the wells. 0.5 mL of Accutase was added per well to treat the cells for 3 to 5 minutes. The cells were released from the wells, and were dispersed into single cells by pipetting. These cells were suspended in a StemFit (registered trademark) AK02N medium containing Y-27632 at a final concentration of 10 μM. A part of the cells was stained with trypan blue to measure the number of living cells.
(§3) The phase-contrast images on day 5 of the culture were analyzed with image analysis software (for example, ImageJ), and a proportion of a surface area of cells with respect to a culture area was calculated. From this value and the culture area (9.2 cm^2/well), an area in which the cell surface was in contact with the medium was calculated. Furthermore, a surface area (cm^2) in contact with the medium per cell was calculated from an area in which the cell surface was in contact with the medium and from the number of living cells on day 5 of the culture. […]

[2] = system: human iPS cell line 201B7; assay: as above; format: cell-based; conditions: Line 201B7, day 5
Protocol: as §1, §2, §3

[3] = WNT3A protein in medium 10 pg/mL, adhesion culture, Line RPChiPS771-2, day 5
[4] = WNT3A protein in medium 100 pg/mL, adhesion culture, Line RPChiPS771-2, day 5
[5] = WNT3A protein in medium 1 ng/mL, adhesion culture, Line RPChiPS771-2, day 5
[6] = WNT3A protein in medium 10 ng/mL, adhesion culture, Line RPChiPS771-2, day 5
[7] = WNT3A protein in medium 100 ng/mL, adhesion culture, Line RPChiPS771-2, day 5
[8] = adhesion culture with added WNT3A, lines 201B7 and RPChiPS771-2, day 5
[9] = WNT3A protein in medium 10 pg/mL
[10] = WNT3A protein in medium 100 pg/mL
[11] = WNT3A protein in medium 1 ng/mL
[12] = WNT3A protein in medium 10 ng/mL
[13] = WNT3A protein in medium 100 ng/mL

B1: WNT3A protein: WNT3A protein (R&D Systems, Inc.) added to the adhesion culture medium at 10 pg/mL to 100 ng/mL (protein, UniProt P56704 19-352, looked up)
Protein Wnt-3a: SYPIWWSLAVGPQYSSLGSQPILCASIPGLVPKQLRFCRNYVEIMPSVAEGIKIGIQECQHQFRGRRWNCTTVHDSLAIFGPVLDKATRESAFVHAIASAGVAFAVTRSCAEGTAAICGCSSRHQGSPGKGWKWGGCSEDIEFGGMVSREFADARENRPDARSAMNRHNNEAGRQAIASHMHLKCKCHGLSGSCEVKTCWWSQPDFRAIGDFLKDKYDSASEMVVEKHRESRGWVETLRPRYTYFKVPTERDLVYYEASPNFCEPNPETGSFGTRDRTCNVSSHGIDGCDLLCCGRGHNARAERRREKCRCVFHWCCYVSCQECTRVYDVHTCK
Relative gene expression level with respect to ACTB in 2^−Λ Ct, Nanog [1, 3]: 5.06 × 10^−2 | Relative gene expression level with respect to ACTB in 2^−Λ Ct, OCT4 [1, 3]: 4.06 × 10^−1 | Relative gene expression level with respect to ACTB in 2^−Λ Ct, SOX2 [1, 3]: 2.64 × 10^−2 | Relative gene expression level with respect to ACTB in 2^−Λ Ct, Nanog [1, 4]: 5.30 × 10^−2 | Relative gene expression level with respect to ACTB in 2^−Λ Ct, OCT4 [1, 4]: 4.44 × 10^−1 | Relative gene expression level with respect to ACTB in 2^−Λ Ct, SOX2 [1, 4]: 2.77 × 10^−2 | Relative gene expression level with respect to ACTB in 2^−Λ Ct, Nanog [1, 5]: 4.88 × 10^−2 | Relative gene expression level with respect to ACTB in 2^−Λ Ct, OCT4 [1, 5]: 3.87 × 10^−1 | Relative gene expression level with respect to ACTB in 2^−Λ Ct, SOX2 [1, 5]: 2.89 × 10^−2 | Relative gene expression level with respect to ACTB in 2^−Λ Ct, Nanog [1, 6]: 5.53 × 10^−2 | Relative gene expression level with respect to ACTB in 2^−Λ Ct, OCT4 [1, 6]: 4.42 × 10^−1 | Relative gene expression level with respect to ACTB in 2^−Λ Ct, SOX2 [1, 6]: 2.77 × 10^−2 | Relative gene expression level with respect to ACTB in 2^−Λ Ct, Brachyury [1, 7]: 3.07 × 10^−4 | Relative gene expression level with respect to ACTB in 2^−Λ Ct, Nanog [1, 7]: 6.65 × 10^−2 | Relative gene expression level with respect to ACTB in 2^−Λ Ct, OCT4 [1, 7]: 4.56 × 10^−1 | Relative gene expression level with respect to ACTB in 2^−Λ Ct, SOX2 [1, 7]: 1.66 × 10^−2 | Relative gene expression level with respect to ACTB in 2^−Λ Ct, SOX17 [1, 7]: 1.11 × 10^−3 | Amount of WNT3A protein contained in unit of medium in contact with unit area of cell surface at which expression of the differentiation marker gene was detected [1, 8]: ≥ 5.2×10^4 μg/mL·cm^2 | Amount of WNT3A protein contained in unit of medium in contact with unit area of cell surface at which expression of the differentiation marker gene was not detected [1, 8]: ≤ 6.7×10^3 μg/mL·cm^2 | Relative gene expression level with respect to ACTB in 2^−Λ Ct, Nanog [2, 9]: 2.59 × 10^−2 | Relative gene expression level with respect to ACTB in 2^−Λ Ct, OCT4 [2, 9]: 2.27 × 10^−1 | Relative gene expression level with respect to ACTB in 2^−Λ Ct, SOX2 [2, 9]: 2.44 × 10^−2 | Relative gene expression level with respect to ACTB in 2^−Λ Ct, Nanog [2, 10]: 2.91 × 10^−2 | Relative gene expression level with respect to ACTB in 2^−Λ Ct, OCT4 [2, 10]: 2.63 × 10^−1 | Relative gene expression level with respect to ACTB in 2^−Λ Ct, SOX2 [2, 10]: 2.75 × 10^−2 | Relative gene expression level with respect to ACTB in 2^−Λ Ct, Nanog [2, 11]: 2.82 × 10^−2 | Relative gene expression level with respect to ACTB in 2^−Λ Ct, OCT4 [2, 11]: 2.50 × 10^−1 | Relative gene expression level with respect to ACTB in 2^−Λ Ct, SOX2 [2, 11]: 2.57 × 10^−2 | Relative gene expression level with respect to ACTB in 2^−Λ Ct, Nanog [2, 12]: 2.96 × 10^−2 | Relative gene expression level with respect to ACTB in 2^−Λ Ct, OCT4 [2, 12]: 2.56 × 10^−1 | Relative gene expression level with respect to ACTB in 2^−Λ Ct, SOX2 [2, 12]: 2.55 × 10^−2 | Relative gene expression level with respect to ACTB in 2^−Λ Ct, Brachyury [2, 13]: 3.14 × 10^−4 | Relative gene expression level with respect to ACTB in 2^−Λ Ct, Nanog [2, 13]: 6.13 × 10^−2 | Relative gene expression level with respect to ACTB in 2^−Λ Ct, OCT4 [2, 13]: 3.60 × 10^−1 | Relative gene expression level with respect to ACTB in 2^−Λ Ct, SOX2 [2, 13]: 2.08 × 10^−2 | Relative gene expression level with respect to ACTB in 2^−Λ Ct, SOX17 [2, 13]: 4.03 × 10^−5
